From patent publication US20240132603A1 (HARBOUR BIOMED US, published 2024)
Residue numbers refer to the chain shown, from its start.

B1: PR004120 (antibody, human IgG1, kappa, V domains shown)
VH: EVQLVESGGGLVQPKGSLKLSCAASGFTFNTNAMNWVRQAPGKGLEWVARIRSKMNNYATYYADSVKDRFTISRDDSQNMLYLQMNNLKTEDTAMYYCVRGKENGNYYAMDFWGQGTSVTVSA
VL: DIVMTQAATSVLVTPGESVSISCRSSKSLLYSNGNTYLYWFLQRPGQSPQLLIYRMSNLASGVPDRFSGSGSGTAFTLRISRVEAEDVGVYYCMQHLEYPFTFGGGTKLEIKR
notes: chimeric, human IgG1 constant region
B2: PR004124 (antibody, human IgG1, kappa, V domains shown)
VH: EVKVEESGGGLVQPGGSMKLSCAASGFTFNTYAMNWVRQAPGKGLEWVARIRSKSNNYATYYADSVKDRFTISRDDSQSMLYLQMNNLKTEDTAMYYCVRGKDYGNYYAMDFWGQGTSLTVSS
VL: B1 VL with A7D, A8E, T9L, V11N, L12P, P15S, Y31H, I111L
notes: as for B1
B3: PR004129 (antibody, human IgG1, kappa, V domains shown)
VH: B2 VH with K3Q, V4L, E5V, G15K, M18L, F112Y, L119V
VL: DILLTQSPAILSVSPGERVSFSCRSSKSLLHSNGNTYLYWFLQRPGQSPQLLIYRMSNLASGVPDRFSGSGSGTAFTLRISRVEAEDVGVYYCMQHLEYPFTFGSGTKLEINR
notes: as for B1
B4: PR004123 (antibody, human IgG1, kappa, V domains shown)
VH: B1 VH with G26E, N32Y, S53T, M55S, Y58F, N79S, Y82F
VL: B1 VL with T9P, L12P, Y31H, I111L
notes: as for B1
B5: PR004126 (antibody, human IgG1, kappa, V domains shown)
VH: B1 VH with N30S, A49G, M55S, N79S
VL: B1 VL with M4I, T9P, L12P, Y31H, G105A, I111L
notes: as for B1
B6: PR004127 (antibody, human IgG1, kappa, V domains shown)
VH: B1 VH with S7T, M55S, A123S
VL: B1 VL with I111M
notes: as for B1
B7: PR004130 (antibody, human IgG1, kappa, V domains shown)
VH: B1 VH with P14F, A23G, A24T, N32Y, M55S, Y61F, A123S
VL: B1 VL with T9P, L12P, Y31H, G105S
notes: as for B1
B8: PR004334 (antibody, human IgG1, kappa, V domains shown)
VH: EVQLVESGGGLVQPGGSLRLSCAASGFTFNTNAMNWVRQAPGKGLEWVSRIRSKSNNYATYYADSVKDRFTISRDDSKSTLYLQMNSLRAEDTAVYYCVRGKENGNYYAMDFWGQGTTVTVSS
VL: B1 VL with T9P, L12P, Y31H, N35K, T36I, F101L, G105A
notes: heavy-chain semi-humanized variant of PR004128, IgG1 with DE mutation
B9: PR004335 (antibody, human IgG1, kappa, V domains shown)
VH: B8 VH with N32Y, F112Y
VL: B1 VL with T9P, L12P, Y31H, N35K, T36I, F101L, G105A
notes: as for B8
B10: PR004345 (antibody, human IgG1, kappa, V domains shown)
VH: B1 VH with N32Y, M55S, N79S
VL: DIVMTQSPLSLPVTLGQPASISCRSNKSLLHSNGNTYLYWFQQRPGQSPRLLIYRMSNLASGVPDRFSGSGSGTDFTLKISRVEAEDVGVYYCMQHLEYPLTFGQGTKLEIKR
notes: light-chain semi-humanized variant of PR004128, IgG1 with DE mutation
B11: PR004343 (antibody, human IgG1, kappa, V domains shown)
VH: B1 VH with N32Y, M55S, N79S
VL: B10 VL with N26S, N35K, T36I
notes: as for B10
B12: PR004344 (antibody, human IgG1, kappa, V domains shown)
VH: B1 VH with N32Y, M55S, N79S
VL: B10 VL with N26S
notes: as for B10
B13: PR004333 (antibody, human IgG1, kappa, V domains shown)
VH: B8 VH with N32Y
VL: B1 VL with T9P, L12P, Y31H, N35K, T36I, F101L, G105A
notes: as for B8
B14: PR004340 (antibody, human IgG1, kappa, V domains shown)
VH: B1 VH with N32Y, M55S, N79S
VL: B10 VL with L15P, Q17E, N26S, Q42L, R44K, R50Q
notes: as for B10
B15: PR004339 (antibody, human IgG1, kappa, V domains shown)
VH: B1 VH with N32Y, M55S, N79S
VL: B10 VL with L15P, Q17E, N26S, N35K, T36I, Q42L, R44K, R50Q
notes: as for B10
B16: PR004332 (antibody, human IgG1, kappa, V domains shown)
VH: B8 VH with Q13K, N32Y, S49G, R89K, A90T, F112Y
VL: B1 VL with T9P, L12P, Y31H, N35K, T36I, F101L, G105A
notes: as for B8
B17: PR006154 (antibody, human IgG1, kappa, V domains shown)
VH: B8 VH with Q13K, N30S, N32Y, S49G, R89K, A90T, N104H
VL: B10 VL with N26S, G34A, N35K, T36I
B18: PR006157 (antibody, human IgG1, kappa, V domains shown)
VH: B8 VH with Q13K, N30S, N32Y, S49G, N57Y, R89K, A90T, N104I
VL: B10 VL with N26S, G34A, N35K, T36I
B19: PR005565AF (antibody, human IgG1, kappa)
heavy: not shown
light: DIVMTQSPLSLPVTLGQPASISCRSSKSLLHSNAKIYLYWFQQRPGQSPRLLIYRMSNLASGVPDRFSGSGSGTDFTLKISRVEAEDVGVYYCMQHLEYPLTFGQGTKLEIKRTVAAPSVFIFPPSDEQLKSGTASVVCLLNNFYPREAKVQWKVDNALQSGNSQESVTEQDSKDSTYSLSSTLTLSKADYEKHKVYACEVTHQGLSSPVTKSFNRGEC
modifications: afucosylated (AF) Fc glycan, produced with 2-fluoro peracetylated fucose
notes: also called PR005565F
B20: PR006161 (antibody, human IgG1, kappa, V domains shown)
VH: B8 VH with Q13K, N30S, N32Y, S49G, N57Y, R89K, A90T, N104H, N106K
VL: B10 VL with N26S, G34A, N35K, T36I
B21: PR006156 (antibody, human IgG1, kappa, V domains shown)
VH: B8 VH with Q13K, N30S, N32Y, S49G, R89K, A90T, N104I
VL: B10 VL with N26S, G34A, N35K, T36I

Biological target: T1, human CCR8 (human, UniProt P51685 1-355)
T1 construct: whole, on cells; construct used for the overexpressing cell lines is not described; also called hCCR8
Experiment: FACS, Baf3-hCCR8 cells
Protocol: (§1) Cells overexpressing human CCR8 were digested with pancreatin, counted and resuspended to a cell density of 1E6 cells/mL. The cell suspension was added to a 96-well V-bottom plate at 100 μL/well and centrifuged at 300 g for 5 min, and the supernatant was discarded. The anti-CCR8 antibodies provided herein was used as a primary antibody and diluted in a 5-fold gradient with an FACS buffer (DPBS containing 2% FBS) from 200 nM. The diluted primary antibody was added at 100 μL/well to resuspend the cells, and the mixture was incubated at 4° C. for 1 h. The plate was washed twice with DPBS and centrifuged at 300×g for 5 min, and the supernatant was discarded. The secondary antibody diluted in a 1:1000 ratio with an FACS buffer was added at 100 μL/well to suspend the cells, and the mixture was incubated at 4° C. for 40 min. The plate was washed twice with DPBS and centrifuged at 300×g for 5 min, and the supernatant was discarded. DPBS was added at 200 μL/well to suspend the cells, and the mixture was loaded on an FACS machine for analysis.

T1 sequence (P51685 whole entry): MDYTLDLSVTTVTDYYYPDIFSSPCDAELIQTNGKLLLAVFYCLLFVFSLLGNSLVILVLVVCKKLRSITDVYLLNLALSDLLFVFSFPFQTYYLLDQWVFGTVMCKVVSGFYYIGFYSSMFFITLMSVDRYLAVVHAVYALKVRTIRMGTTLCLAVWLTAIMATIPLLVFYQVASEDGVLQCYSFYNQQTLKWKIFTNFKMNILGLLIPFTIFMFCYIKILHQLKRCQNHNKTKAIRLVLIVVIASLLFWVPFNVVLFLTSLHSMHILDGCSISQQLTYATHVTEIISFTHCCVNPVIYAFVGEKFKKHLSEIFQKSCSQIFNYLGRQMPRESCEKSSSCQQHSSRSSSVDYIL

In order of rising EC50:
1. B3  0.06 nM
2. B2  0.17 nM
3. B5  0.18 nM
4. B4  0.2 nM
5. B7  0.2 nM
6. B1  0.24 nM
7. B6  0.26 nM

Biological target: T2, cynomolgus monkey CCR8 (cynomolgus monkey, UniProt G7NYJ2 1-355)
T2 construct: whole, on cells; also called CynoCCR8
Experiment: FACS, CHO-K1-CynoCCR8 cells
Protocol: as §1, with “cynomolgus monkey CCR8, CHO-K1-CynoCCR8,” for “human CCR8”

T2 sequence (G7NYJ2 entry or part of it): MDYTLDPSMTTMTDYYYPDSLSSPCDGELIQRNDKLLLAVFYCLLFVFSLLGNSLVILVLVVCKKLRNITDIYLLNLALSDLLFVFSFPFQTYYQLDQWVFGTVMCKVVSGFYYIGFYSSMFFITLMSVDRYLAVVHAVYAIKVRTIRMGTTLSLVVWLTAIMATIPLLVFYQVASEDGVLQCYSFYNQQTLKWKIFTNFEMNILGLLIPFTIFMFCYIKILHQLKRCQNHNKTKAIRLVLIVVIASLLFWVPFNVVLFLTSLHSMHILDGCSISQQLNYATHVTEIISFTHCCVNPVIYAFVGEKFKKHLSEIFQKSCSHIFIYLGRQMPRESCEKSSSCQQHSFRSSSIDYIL

In order of falling EC50:
1. B15  9.58 nM
2. B8  7.5 nM
3. B11  6.38 nM
4. B10  5.96 nM
5. B14  5.35 nM
6. B13  4.97 nM
7. B9  3.52 nM
8. B12  3.51 nM
9. B16  2.75 nM

Biological target: T1, human CCR8
Experiment: FACS, CHO-K1-hCCR8 cells
Protocol: as §1

In order of falling EC50:
1. B8  1.33 nM
2. B10  1.12 nM
3. B11  1.08 nM
4. B14  1.06 nM
5. B12  1 nM
6. B9  0.97 nM
7. B15  0.95 nM
8. B13  0.91 nM
9. B16  0.73 nM

Biological target: T2, cynomolgus monkey CCR8
Experiment: FACS, CHO-K1-CynoCCR8 cells
Remark: another data set of the same source
Protocol: as §1, with “cynomolgus monkey CCR8, CHO-K1-CynoCCR8,” for “human CCR8”

In order of falling EC50:
1. B19  0.62 nM
2. B20  0.43 nM
3. B18  0.42 nM
4. B17  0.31 nM
5. B21  0.3 nM

Biological target: T1, human CCR8
Experiment: FACS, CHO-K1-hCCR8 cells
Remark: another data set of the same source
Protocol: as §1

In order of rising EC50:
1. B3  0.25 nM
2. B17  0.38 nM
3. B19  0.38 nM
4. B20  0.38 nM
5. B21  0.38 nM
6. B5  0.43 nM
7. B2  0.45 nM
8. B4  0.46 nM
9. B7  0.46 nM
10. B1  0.54 nM
11. B6  0.56 nM
12. B18  0.73 nM

Biological target: T1, human CCR8
Experiment: FACS, HEK293-hCCR8 cells
Protocol: as §1

In order of falling EC50:
1. B1  1.1 nM
2. B6  0.86 nM
3. B7  0.8 nM
4. B4  0.62 nM
5. B2  0.58 nM
6. B5  0.58 nM
7. B3  0.34 nM
